Where a chain is given by its changes, count along the chain named. Some results are limits rather than exact numbers.

What all share (experiment): cleavage_in_vitro
In series [1] the test system is T1, NcoI (Nocardia corallina).
T1 sequence: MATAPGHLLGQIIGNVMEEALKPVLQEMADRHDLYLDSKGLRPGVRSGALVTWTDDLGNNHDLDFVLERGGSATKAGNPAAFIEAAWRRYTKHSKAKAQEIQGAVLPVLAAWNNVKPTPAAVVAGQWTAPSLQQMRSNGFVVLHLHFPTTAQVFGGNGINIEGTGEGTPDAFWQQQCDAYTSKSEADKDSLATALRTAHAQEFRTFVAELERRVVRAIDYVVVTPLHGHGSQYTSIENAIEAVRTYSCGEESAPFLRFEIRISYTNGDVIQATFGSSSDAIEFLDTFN
The following applies: NEB1, 10 mM MgCl2, 37 C.

The subject of series [2] is T2, SphI (Streptomyces phaeochromogenes).
T2 sequence: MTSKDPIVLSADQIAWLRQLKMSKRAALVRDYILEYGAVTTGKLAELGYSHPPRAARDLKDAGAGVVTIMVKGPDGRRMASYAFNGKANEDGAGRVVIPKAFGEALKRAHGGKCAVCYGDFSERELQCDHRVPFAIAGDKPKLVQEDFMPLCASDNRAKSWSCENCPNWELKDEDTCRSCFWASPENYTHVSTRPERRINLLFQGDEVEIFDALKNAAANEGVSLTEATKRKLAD
The following applies: NEB1, 10 mM MgCl2, 37 C.

The target of series [3] is T3, BamHI-HF E163A/E167T (Bacillus amyloliquefaciens) (UniProt P23940).
T3 sequence: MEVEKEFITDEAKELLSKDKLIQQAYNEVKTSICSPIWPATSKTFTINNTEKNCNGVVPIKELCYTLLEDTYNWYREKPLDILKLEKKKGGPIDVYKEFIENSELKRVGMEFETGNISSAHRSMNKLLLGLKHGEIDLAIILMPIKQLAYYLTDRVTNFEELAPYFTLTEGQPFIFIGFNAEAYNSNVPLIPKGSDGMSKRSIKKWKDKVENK
The following applies: NEB4, 10 mM Mg acetate, 37 C.

Series [4] has as its system BsmBI. The following applies: NEB3, 10 mM MgCl2, 55 C.
Series [5] has as its target T4, ScaI (Streptomyces caespitosus) (UniProt O52691).
T4 sequence: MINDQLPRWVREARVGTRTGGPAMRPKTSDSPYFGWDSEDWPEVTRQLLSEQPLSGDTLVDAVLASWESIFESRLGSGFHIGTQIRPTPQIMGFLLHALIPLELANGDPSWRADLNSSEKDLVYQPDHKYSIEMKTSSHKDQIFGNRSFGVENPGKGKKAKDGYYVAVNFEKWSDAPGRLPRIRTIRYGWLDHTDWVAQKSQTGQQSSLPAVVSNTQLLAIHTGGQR
The following applies: NEB2, 10 mM MgCl2, 37 C; printed as 1/8.

The subject of series [6] is T5, SbfI-HF K251A (Streptomyces species Bf-61?).
T5 sequence: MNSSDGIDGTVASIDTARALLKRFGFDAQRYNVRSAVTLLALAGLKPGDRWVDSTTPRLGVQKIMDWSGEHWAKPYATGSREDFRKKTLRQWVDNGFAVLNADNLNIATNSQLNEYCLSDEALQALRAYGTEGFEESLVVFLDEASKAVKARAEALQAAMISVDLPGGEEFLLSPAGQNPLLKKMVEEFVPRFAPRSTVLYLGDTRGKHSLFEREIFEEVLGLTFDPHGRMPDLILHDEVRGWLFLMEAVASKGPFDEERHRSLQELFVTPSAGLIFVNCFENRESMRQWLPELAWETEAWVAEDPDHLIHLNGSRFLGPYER
The following applies: NEB1, 10 mM MgCl2, 37 C.

Series [7] addresses T6, HindIII (Haemophilus influenzae Rd) (UniProt P43870).
T6 sequence: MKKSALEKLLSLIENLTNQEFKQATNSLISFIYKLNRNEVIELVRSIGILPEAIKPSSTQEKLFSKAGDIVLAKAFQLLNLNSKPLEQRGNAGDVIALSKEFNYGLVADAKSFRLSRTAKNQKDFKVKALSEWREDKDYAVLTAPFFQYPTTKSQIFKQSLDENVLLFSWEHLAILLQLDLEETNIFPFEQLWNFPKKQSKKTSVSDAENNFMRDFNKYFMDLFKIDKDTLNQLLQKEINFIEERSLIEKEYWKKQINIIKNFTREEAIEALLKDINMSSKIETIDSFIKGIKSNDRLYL
The following applies: NEB2, 10 mM MgCl2, 37 C.

Series [8] relates to T7, SspI-HF Y98F (Sphaerotilus species).
T7 sequence: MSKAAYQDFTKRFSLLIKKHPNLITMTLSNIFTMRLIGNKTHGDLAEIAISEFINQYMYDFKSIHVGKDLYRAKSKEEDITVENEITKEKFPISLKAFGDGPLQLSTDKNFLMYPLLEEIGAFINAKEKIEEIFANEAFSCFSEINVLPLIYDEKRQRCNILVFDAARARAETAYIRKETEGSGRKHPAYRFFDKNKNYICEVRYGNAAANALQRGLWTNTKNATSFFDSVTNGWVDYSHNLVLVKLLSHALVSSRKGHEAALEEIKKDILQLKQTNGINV
The following applies: NEB4, 10 mM Mg acetate, 37 C.

Series [9] has as its system T8, SphI-HF K100A (Streptomyces phaeochromogenes).
T8 sequence: T2 sequence with K100A
The following applies: NEB4, 10 mM Mg acetate, 37 C.

Series [10] concerns T9, SspI (Sphaerotilus species).
T9 sequence: T7 sequence with F98Y
The following applies: NEB1, 10 mM MgCl2, 37 C.

Take lambda DNA: the activity (fidelity index) was 120 in [1]; 64 in series [2]; > 4000 in series [3]; 120 in [4]; 0.125 in [5]; 1000 in series [6]. Further, the activity (fidelity index) was determined as 250 in series [7], 500 in series [8], 8000 in [9] and 64 in [10].

These data come from patent publication US20130115676.
